Test results from publication PMC6882875.

Key:
Test in all cases: EMSA
Conditions in all cases: EMSA: binding buffer stock 80 mM Tris-HCl pH 8.0, 20 mM MgCl2, 2 mM DTT, 4 mM EDTA, 400 mM KCl, 40% glycerol (final dilution not stated); poly(dI-dC) …
[1] = system: AraQ (Bifidobacterium breve UCC2003)
[2] = system: MalR1 (Bifidobacterium breve UCC2003)
[3] = system: T1, AraQ (Bifidobacterium breve UCC2003), ORF:c628000b
T1 sequence: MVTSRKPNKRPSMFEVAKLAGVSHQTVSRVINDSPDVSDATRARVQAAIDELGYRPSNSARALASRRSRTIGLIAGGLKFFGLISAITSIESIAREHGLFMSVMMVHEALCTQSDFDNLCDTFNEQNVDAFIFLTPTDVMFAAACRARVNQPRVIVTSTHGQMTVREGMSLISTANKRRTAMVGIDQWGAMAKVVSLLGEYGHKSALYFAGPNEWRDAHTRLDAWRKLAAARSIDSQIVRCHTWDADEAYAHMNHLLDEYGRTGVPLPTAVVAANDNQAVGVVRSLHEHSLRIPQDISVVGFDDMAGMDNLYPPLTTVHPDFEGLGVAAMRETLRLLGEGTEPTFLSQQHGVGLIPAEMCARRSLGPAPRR

[4] = system: T2, MalR1 (Bifidobacterium breve UCC2003), ORF:82221dfa
T2 sequence: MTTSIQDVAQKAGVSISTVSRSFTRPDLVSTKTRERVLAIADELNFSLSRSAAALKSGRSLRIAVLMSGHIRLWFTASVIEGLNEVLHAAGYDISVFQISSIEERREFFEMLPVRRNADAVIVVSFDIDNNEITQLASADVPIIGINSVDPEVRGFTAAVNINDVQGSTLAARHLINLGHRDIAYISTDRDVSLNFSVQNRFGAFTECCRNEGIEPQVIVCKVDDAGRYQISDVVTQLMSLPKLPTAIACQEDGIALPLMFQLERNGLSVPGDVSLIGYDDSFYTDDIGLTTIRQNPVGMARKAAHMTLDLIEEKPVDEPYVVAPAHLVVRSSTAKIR

| Substance | binding signal [1] [% bound] | binding signal [2] [% bound] | binding signal [3] | binding signal [4] |
| --- | --- | --- | --- | --- |
| Bbr_1420 promoter | 0 | < 15 | – | – |
| Bbr_1658 promoter | 0 | 0 | – | – |
| Bbr_1659 promoter | 0 | 0 | – | – |
| Bbr_1841 promoter | < 15 | 0 | – | – |
| Bbr_1894 (PTS) promoter | – | < 15 | – | – |
| CATACGCCTCTCGCTTTCGTCATTGGGCCGACGTCACTGCCGGCACAAAACCGCGACACATGTATGCGTCTTGGTCAACGCTGAATCGTCTCATCACTGAAATGATTTAACGTTTAATCACTTGCGTGATTCATAATATATCGTTTAATCACAGGGGTCAATCAGCGTGTCGAGAGCGTTAACAATCGCGTCCTAACGCCATTACCAGCACATCAGAAACACAATATGGCACAAAAAAAGACAAAATATTGGCGGCGAAGGACTATTGAGC (double strand) [rbsA1 promoter] | – | – | 0 % bound | binds |
| CGAATGCCATATCCGTCTCCTCCTTGCGGCTTACTGCAGCGTTAGAAATGCACAATTCAAATGTACCCTTCTTATAACCGACGCCCGCAAGGTCGTGTCATGCGTCAAACTCTTTTACTGCAGACATTTTTGAGGCTTCTGCTGTTTTCGTGGGCTAGCTGACTGGTTCCGGTAGTCGGATGTCGAGTCCGCCGCATCTGAGCATGATC (double strand) [Bbr_1420 promoter] | – | – | 0 % bound | < 15 % bound |
| CGACAGCTTCCTTGCCATGCTGGCCCTCCTTTATTTTCCAACCCTCGGTTTTCCGCATTGTGCAATCTGCATTGTTTGCCTTGCGGAATCTTAGGAAATTATTTTCCTAAAATGTTTTCTTGAGATAAGATTATAGGACGCCAACGTCAGTGTCAACACGGCGGGTCGAGGGTCGCACAACCCGGACCGAACGGCCCACAATGGCGACGTAGCAAGGAACAGAACGCTACGCCCTTGTACACTGATACAGAGGAAAACAGGCAGGAGGGGAGACATGAACATCAGGGACATCGCACGC (double strand) [Bbr_1841 promoter] | – | – | < 15 % bound | 0 % bound |
| CTTCGCCACGTCATACACCGTTGCCCTACGCATGATTCCTACTTTAATCGATTCCGGAGGTCAGCACACGTTCGACCTGAATCTAAAAAAAGTTTTAGTGGCTTTCCTGTCAATCTCGCATGCATACTTCAGGTTACGGGCGCAGCACCCAATAATGGGTACCGCGCCTTAATGACCGCTACACGAGCAGTCTCAGCAACTGGTAAAGCTGCCATAGGCTGCGCACGTTG (double strand) [Bbr_1659 promoter] | – | – | 0 % bound | 0 % bound |
| GATGAGTGCGCGTGAGAAGAAGAAGGCTGCCGTAGAAGCGAAATAATCGGTGCATGGCCGCTCTGCAGATATATGGAGGGCGGTCTGCGAACCGCCGGGAATGGGTTGCCAATCCCGGCGGTTTGTGTATCCGTGGCGCAGTACAGTCGTAAAGGAAGGCAAGGAGGACAACCATGGCGGAAGGTGTACCGAAGTATATTGCGGTTAGGGACAATCTTCGCCAGCGTG (double strand) [gntR promoter] | – | – | 0 % bound | 0 % bound |
| GCGTTCTATCCTTGCACTGAGCCACGAAAGACGGCATTGTGCAAACGATGGCATACTGTGGGATGCGGAATGACAAGACATGTGATACTCTCTGACTGAGAACGTATGCAACAACTGTCTGCCAACGCTGTTACAGAGAGTTCATGCACACGTTTATGCGACGATACCAATCGCGCGGCATAATAAGCACGGGCACTTATCCCGGAAGGAAAGTCAGAATG (double strand) [glgP1 promoter] | – | – | binds | 0 % bound |
| GCTCGCTTTTGCCATGGCAACCTCGCTCATCAACAGTGGATAACAATCCCGCTCAAAAGACAACGTTATCATACCTAAGCGAGCAACATGCACGCCACGCTGTCTATTTAGAAGTGCAACGCCCCTGTTCGTCGGCTAATTCTTGCAGTTCGTCGGTGAATGCCCCGGGCCCCCGGATTCAACTTGTAAGTGCAACGGCTGGTTTCGG (double strand) [malR2 promoter] | – | – | binds | 0 % bound |
| GGTCAAGCTCATCGTGCGGGGCAGCTGTGGGTGCTGATTATTTCTTGAAGAAGGCTAAATAAGGCTTTTGAGACCTCCTGCAGGGGAGTCACTGTTGATGCTGTTTCGTCGTGTCGAATCGGTTCGCGAGTTGACAAACAAAAAACTATGCGCTTAAATATTAATCACAATCTACGCGGTTAGATTGTTGAGAAGTAACAGTTCAAGGAGGAACGAGGAATGAAGCGAAGCATGTTCAAGATGGCGACTGCCATCATCGCCAGTGCGGCTATGCTGACCAG (double strand) [Bbr_1658 promoter] | – | – | 0 % bound | 0 % bound |
| GGTTGTCGTAATCCTCGGTGGAAGGACCGATGGTGTCTACGATCTTGGCTTTACGCATGAATGCCTGCCTATTCTTGTTCTTTTTTGGTTCGAGGCGCGATTGCCTCACTTGCCGCAGCCCAGTCTACTAGCGCAGACCGGCTCATGACAAGTTTATTCCCCGGTGTGTTGTGAGCGCTCACACTGTTGCGCCGATTGGGTTTTGAGGGGTTGATTTCCCTATGATTTCAGGCCTTCTCAGCG (double strand) [pyk promoter] | – | – | binds | binds |
| agl3 promoter | 0 | 0 | – | – |
| cldE promoter | 0 | – | – | – |
| cldR promoter | 0 | 0 | – | – |
| glgP1 promoter | – | 0 | – | – |
| glgP2 promoter | 0 | 0 | – | – |
| gntR promoter | 0 | 0 | – | – |
| malE promoter | – | 0 | – | – |
| malG2 (F2) promoter | – | 0 | – | – |
| malQ promoter | < 15 | 0 | – | – |
| malR2 promoter | – | 0 | – | – |
| malR3/apuB intergenic region | < 15 | < 15 | – | – |
| malR5/malE2 intergenic region | < 15 | < 15 | – | – |
| nrdH promoter | – | 0 | – | – |
| rbsA1 promoter | 0 | – | – | – |
